Reference: patent US20130196320A1, “METHOD FOR IMPROVING CLEAVAGE OF DNA BY ENDONUCLEASE SENSITIVE TO METHYLATION” (CELLECTIS, priority 2010, published 2013)
Where two headings read alike, the source gives them in different places.

B1: XPC4: engineered meganuclease (SEQ ID NO: 2) designed to cleave xeroderma pigmentosum group C gene (XPC) (protein)
chain: MANTKYNEEFLLYLAGFVDGDGSIIAQIKPNQSHKFKHALQLTFKVTQKTQRRWFLDKLVDEIGVGYVQDSGSVSNYILSEIKPLHNFLTQLQPFLELKQKQANLALKIIEQLPSAKESPDKFLEVCTWVDQVAALNDSKTRKTTSETVRAVLDSLSEKKKSSPAAGGSDKYNQALSKYNQALSKYNQALSGGGGSNKKFLLYLAGFVDSDGSIIAQIKPNQSHKFKHQLSLAFQVTQKTQRRWFLDKLVDRIGVGYVRDRGSVSDYILSKIKPLHNFLTQLQPFLKLKQKQANLVLKIIEQLPSAKESPDKFLEVCTWVDQVAALNDSKTRKTTSETVRAVLDSLSEKKKSSP
B2: ADCY9: engineered meganuclease (SEQ ID NO: 3) designed to cleave adenylate cyclase 9 gene (protein)
chain: MANTKYNEEFLLYLAGFVDGDGSIIAQIKPNQSYKFKHQLSLTFRVTQKTQRRWFLDKLVDEIGVGYVRDSGSVSNYDLSEIKPLHNFLTQLQPFLELKQKQANLVLKIIEQLPSAKESPDKFLEVCTWVDQVAALNDSKTRKTTSETVRAVLDSLSEKKKSSPAAGGSDKYNQALSKYNQALSKYNQALSGGGGSNKKFLLYLAGFVDSDGSIIAQIKPDQSYKFKHQLGLTFQVTQKTQRRWFLDKLVDRIGVGYVRDRGSVSDYILSEIKPLHNFLTQLQPFLKLKQKQANLVLKIIEQLPSAKESPDKFLEVCTWVDQVAALNDSKTRKTTSETVRAVLDSLSEKKKSSP

How the values were obtained:
[1] = test system: XPC4 target locus in 293H cells; assay: Meganuclease-induced mutagenesis at XPC4 target locus by deep sequencing, siRNA targeting DNMT1; format: cell-based, human; conditions: for mutagenesis, PCR fragments carrying a mutation: XPC4 meganuclease plasmid
Experimental: The human 293H cells (ATCC) were plated at a density of 1.2×10^6 cells per 10 cm dish in complete medium (DMEM supplemented with 2 mM L-glutamine, penicillin (100 IU/ml), streptomycin (100 μg/ml), amphotericin B (Fongizone: 0.25 μg/ml, Invitrogen-Life Science) and 10% FBS). The next day, cells were transfected with 5 μg of empty vector pCLS003 (SEQ ID NO: 65) and 1 nM or 5 nM of si_DNMT1 composed of mixture of two siRNA DNMT1—1 ([…], SEQ ID NO: 66) and DNMT1—2 ([…], SEQ ID NO: 67) or with si_AS, a siRNA control with no known human target, using Lipofectamine 2000 as transfection reagent (Invitrogen) according to the manufacturer's protocol. The day after, cells were re-platted at the density of 1.2×10^6 cells per 10 cm. 24 hours after, cells were transfected again with 1 nM or 5 nM of siDNMT1 or si_AS in presence of 3 μg of meganuclease expressing vector (pCLS2510; SEQ ID NO: 68) and 2 μg of empty vector or 5 μg of empty vector (SEQ ID NO: 65), with Lipofectamine 2000 transfection reagent (Invitrogen) according to the manufacturer's protocol.
After genomic DNA extraction, the XPC4 target locus was amplified with specific primers flanked by specific adaptator needed for HTS sequencing on the 454 sequencing system (454 Life Sciences)
5,000 to 10,000 sequences per sample were analyzed.

ADCY9.1 DNA target = assay: In vitro binding assay, fluorescence anisotropy of fluorescein-labeled ADCY9.1 duplex
Experimental: FIG. 12: Spectrofluorimetric titration of fluorescein-labeled ADCY9.1 by ADCY9. 50 nM of ADCY9.1 duplex was incubated with increasing concentrations of ADCY9 (from 0 to 1.5 μM) in binding buffer (10 mM Tris-HCl, 150 mM NaCl, 10 mM CaCl2, 10 mM DTT, pH8) at 25° C. After 30 minutes incubation, the fluorescence anisotropy of the mixture was recorded with a Pherastar Plus (BMG Labtech) operating in fluorescence polarization end point mode with excitation and emission wavelengths set to 495 and 520 nm respectively. Normalized fluorescence anisotropy is plotted as a function of ADCY9 concentration. Apparent dissociation constant were determined by fitting raw data by an hyperbolic function (Ax=(A∞*[Meganuclease])/(Kd+[Meganuclease]) with Ax, the fluorescence anisotropy value obtained at a given meganuclease concentration, A∞ the fluorescence anisotropy value obtained at saturating concentration of meganuclease and Kd the dissociation constant of the equilibrium studied).
Fluorescein labeled C1234 oligonucleotides were synthesized and HPLC-purified by Eurogentec. […] C 1234 duplex and fluorescein final concentrations were assessed by spectrophotometry using their respective extinction coefficients ε260nm=62900 M^−1 cm^−1 and ε495nm=83000 M^−1 cm^−1. […]

Molecule | mutagenesis, PCR fragments carrying a mutation ([1]; Si_AS 1 nM (control siRNA)) | mutagenesis, PCR fragments carrying a mutation ([1]; Si_AS 5 nM (control siRNA)) | mutagenesis, PCR fragments carrying a mutation ([1]; Si_DNMT1 1 nM) | mutagenesis, PCR fragments carrying a mutation ([1]; Si_DNMT1 5 nM) | PCR fragments carrying a mutation ([1]; XPC4 meganuclease, non relevant siRNA (si_AS)) | mutations ([1]; XPC4 meganuclease, samples treated with si_DNMT1) | Kd (ADCY9.1 DNA target; ADCY9.1_Me −3a/−2b (fully methylated), sigmoidal pattern, read-out: Kd (apparent)) | Kd (ADCY9.1 DNA target; unmethylated ADCY9.1, read-out: Kd)
B1 | 0.3% | 0.2% | 4.8% | 7.6% | 0.2-0.3% | up to 7% |  | 
B2 |  |  |  |  |  |  | 431 ± 30 nM | 190 ± 19 nM
